Experiments:
Saccharomyces cerevisiae [1] = experiment: protein stability index of tFT-peptide fusion in wild type (PSI (0-1 scale)); higher = more stable (slower turnover); conditions: genetic background: wild type
Description: (§1)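 MPS profiling in S. cerevisiae of two library types built from selected 12-aa C-degron peptides (IN1, IN2, LN1, LN3, VN2, R1-R5, W1-W3, Atg1 and Rpa12 C-termini): saturation mutagenesis libraries and C-terminal +1 capping libraries (13 aa). Each peptide is fused to the C-terminus of a sfGFP-mCherry timer, after a GGGS linker. Cells are FACS-sorted into 8 mCherry/sfGFP bins and sequenced. PSI runs from 0 (unstable) to 1 (stable), measured once in wild type and in the das1Δ or doa10Δ background.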

Saccharomyces cerevisiae [2] = experiment: protein stability index of tFT-peptide fusion in deletion strain of DAS1 (PSI (0-1 scale)); higher = more stable (slower turnover)
Description: as §1
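Wherever protein stability index of tFT-peptide fusion in deletion strain of DAS1 is given: PSI is a weighted mean of each variant's read distribution over the sorted stability bins, computed only for variants having over 10 reads in total.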
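Wherever protein stability index of tFT-peptide fusion in wild type is given: PSI derived as read-weighted mean over the 8 sorting bins, only variants exceeding 10 total reads kept, mCherry placed adjacent to the peptide and sfGFP distal.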

| Sequence | protein stability index (Saccharomyces cerevisiae [1]) | protein stability index (Saccharomyces cerevisiae [2]) |
| --- | --- | --- |
| LKKLRQKMNHQN | 0.235 | 0.68 |
| LVVYLSCRACIN | 0.0228 | 0.0311 |
| CTSCGYKARTNN | 0.623 | 0.686 |
| VRGAVGEWRLVG | 0.182 | 0.696 |
| ARWRVGLDRGAS | 0.665 | 0.687 |
| PSLAASFWRVVGD | 0.689 | 0.691 |
| ARWRVGEWRGAS | 0.677 | 0.684 |
| LKILRQKMPHQN | 0.681 | 0.692 |
| FSMAWTFRYWVN | 0.0458 | 0.456 |
| VRGATGGWRLVG | 0.188 | 0.682 |
| PGLAASFWRVVG | 0.172 | 0.695 |
| FSMRWTSRYWVN | 0.105 | 0.598 |
| RLLQPLPVQFLN | 0.037 | 0.595 |
| LVVYLSCVWCIN | 0.0553 | 0.263 |
| PSLAASFWRVTG | 0.142 | 0.687 |
| KKHKKGQKQFIN | 0.209 | 0.558 |
| FKHKKGQKQKIN | 0.123 | 0.586 |
| FSMRRTFRYWVN | 0.102 | 0.616 |
| CTSCGYIFRTNN | 0.233 | 0.706 |
| KKLKKGQKQKIN | 0.0797 | 0.594 |

| Sequence | protein stability index (Saccharomyces cerevisiae [1]) | protein stability index (Saccharomyces cerevisiae [2]) |
| --- | --- | --- |
| PDDRNHLIKLLN | 0.157 | 0.594 |
| LVVYLSCVACTN | 0.0171 | 0.0308 |
| FSMRWTFAYWVN | 0.047 | 0.39 |
| VRQAVGGWRLVG | 0.132 | 0.684 |
| IDKRNHLIKLLN | 0.143 | 0.584 |
| KKHKKGNKQKIN | 0.0792 | 0.601 |
| LVVYLSCVACIM | 0.0115 | 0.022 |
| PDKRNHLIKSLN | 0.298 | 0.627 |
| LKILRYKMNHQN | 0.181 | 0.64 |
| LKILRQKMNHQT | 0.252 | 0.671 |
| LKILRQKMNIQN | 0.214 | 0.686 |
| VRGAVGDWRLVG | 0.215 | 0.658 |
| PSTAASFWRVVG | 0.135 | 0.701 |
| LVVYLSCVACINE | 0.0198 | 0.0324 |
| LKNLRQKMNHQN | 0.208 | 0.678 |
| PSLAASFWRVRG | 0.666 | 0.683 |
| FSMRWTFRYKVN | 0.0899 | 0.691 |
| VRGAVGGWRLVGC | 0.638 | 0.694 |
| LKILRQKMEHQN | 0.404 | 0.671 |
| RLIQDLPVQFLN | 0.14 | 0.588 |

| Sequence | protein stability index (Saccharomyces cerevisiae [1]) | protein stability index (Saccharomyces cerevisiae [2]) |
| --- | --- | --- |
| PSLAASFWIVVG | 0.418 | 0.421 |
| FSRRWTFRYWVN | 0.0509 | 0.636 |
| KKHKKGIKQKIN | 0.0645 | 0.588 |
| PDKRNHLMKLLN | 0.089 | 0.592 |
| CTSCGYFFRTNN | 0.222 | 0.695 |
| KKHKKGQKYKIN | 0.199 | 0.634 |
| CTSCGYPFRTNN | 0.677 | 0.723 |
| KKHEKGQKQKIN | 0.0983 | 0.603 |
| NSMRWTFRYWVN | 0.0828 | 0.598 |
| LVIYLSCVACIN | 0.0156 | 0.0377 |
| FSMRFTFRYWVN | 0.0475 | 0.501 |
| PSLAASRWRVVG | 0.156 | 0.682 |
| AKHKKGQKQKIN | 0.11 | 0.829 |
| FSMRWTTRYWVN | 0.0528 | 0.566 |
| VVGAVGGWRLVG | 0.125 | 0.69 |
| LKILRWKMNHQN | 0.209 | 0.658 |
| LVVFLSCVACIN | 0.0196 | 0.0386 |
| RLIQHLPVQFLN | 0.0489 | 0.636 |

— the supplement of paper PMC10724198
